Measurements from US20160136234A1.

How the values were obtained:
Assay in all cases: cell-based or functional assay
MELK (h) (human) = MELK (h) (human) (UniProt Q14680)
EphA1 (h) (human) = target: T1, EphA1 (h) (human) (UniProt P21709)
T1 sequence (looked up): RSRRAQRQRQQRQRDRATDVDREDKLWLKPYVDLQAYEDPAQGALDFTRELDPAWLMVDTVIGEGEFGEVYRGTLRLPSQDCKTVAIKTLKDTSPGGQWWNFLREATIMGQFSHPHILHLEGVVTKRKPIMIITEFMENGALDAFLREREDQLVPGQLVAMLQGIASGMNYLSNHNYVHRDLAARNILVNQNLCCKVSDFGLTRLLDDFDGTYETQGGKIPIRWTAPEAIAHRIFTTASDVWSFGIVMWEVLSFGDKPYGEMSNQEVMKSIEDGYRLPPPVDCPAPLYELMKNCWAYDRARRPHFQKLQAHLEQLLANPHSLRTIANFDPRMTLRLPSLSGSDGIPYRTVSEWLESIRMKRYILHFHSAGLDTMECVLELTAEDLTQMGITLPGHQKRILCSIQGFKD

TAO2 (h) (human) = target: T2, TAO2 (h) (human) (UniProt Q9UL54)
T2 sequence (looked up): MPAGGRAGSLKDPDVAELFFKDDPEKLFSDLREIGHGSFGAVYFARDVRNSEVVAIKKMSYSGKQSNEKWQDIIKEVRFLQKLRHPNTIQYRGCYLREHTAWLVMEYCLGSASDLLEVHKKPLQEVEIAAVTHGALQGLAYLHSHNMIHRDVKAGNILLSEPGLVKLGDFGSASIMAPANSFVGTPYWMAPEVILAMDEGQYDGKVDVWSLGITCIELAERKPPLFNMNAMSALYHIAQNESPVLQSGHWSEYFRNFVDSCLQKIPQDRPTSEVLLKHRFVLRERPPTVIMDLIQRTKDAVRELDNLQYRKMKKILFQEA

mTOR/FKBP12 (h) (human) = mTOR/FKBP12 (h) (human) (UniProt P42345)
Sequence of mTOR/FKBP12 (h) (human) (P42345 1362-2549 limits assumed, chain 1 of 2): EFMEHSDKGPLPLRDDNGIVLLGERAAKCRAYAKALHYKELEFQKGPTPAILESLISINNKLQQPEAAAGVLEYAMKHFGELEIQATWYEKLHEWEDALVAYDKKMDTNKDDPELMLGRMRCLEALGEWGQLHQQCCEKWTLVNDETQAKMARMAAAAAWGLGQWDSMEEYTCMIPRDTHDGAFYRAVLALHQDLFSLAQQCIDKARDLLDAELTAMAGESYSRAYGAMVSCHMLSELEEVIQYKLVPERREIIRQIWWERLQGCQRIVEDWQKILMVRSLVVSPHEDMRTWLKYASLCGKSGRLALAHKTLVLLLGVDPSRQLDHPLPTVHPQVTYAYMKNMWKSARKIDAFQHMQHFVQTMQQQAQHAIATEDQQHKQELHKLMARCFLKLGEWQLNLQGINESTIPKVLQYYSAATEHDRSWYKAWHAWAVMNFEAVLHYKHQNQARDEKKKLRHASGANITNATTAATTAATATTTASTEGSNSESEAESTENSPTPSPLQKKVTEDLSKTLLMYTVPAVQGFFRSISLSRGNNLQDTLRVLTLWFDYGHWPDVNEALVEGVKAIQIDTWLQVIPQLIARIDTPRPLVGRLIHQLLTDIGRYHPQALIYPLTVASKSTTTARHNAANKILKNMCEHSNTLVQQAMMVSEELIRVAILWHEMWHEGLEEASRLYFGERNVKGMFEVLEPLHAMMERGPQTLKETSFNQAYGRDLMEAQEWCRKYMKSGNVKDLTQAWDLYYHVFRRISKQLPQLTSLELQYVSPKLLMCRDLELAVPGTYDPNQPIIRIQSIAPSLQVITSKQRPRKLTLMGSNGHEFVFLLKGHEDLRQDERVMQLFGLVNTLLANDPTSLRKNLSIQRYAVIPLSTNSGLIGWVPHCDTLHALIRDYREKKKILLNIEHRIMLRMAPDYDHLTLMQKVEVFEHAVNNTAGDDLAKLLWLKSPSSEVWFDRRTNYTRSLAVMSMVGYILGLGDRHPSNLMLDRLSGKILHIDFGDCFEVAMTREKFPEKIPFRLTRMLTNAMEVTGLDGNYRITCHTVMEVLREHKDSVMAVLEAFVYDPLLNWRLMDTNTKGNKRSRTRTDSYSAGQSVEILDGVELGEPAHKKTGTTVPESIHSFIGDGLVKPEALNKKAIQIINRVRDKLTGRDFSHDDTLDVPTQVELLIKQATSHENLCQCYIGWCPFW
Sequence of mTOR/FKBP12 (h) (human) (P62942 whole entry, chain 2 of 2, further chain): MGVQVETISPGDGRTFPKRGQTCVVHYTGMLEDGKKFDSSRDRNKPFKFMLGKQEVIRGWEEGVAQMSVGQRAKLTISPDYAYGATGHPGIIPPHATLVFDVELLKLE

DAPK2 (h) (human) = DAPK2 (h) (human) (UniProt Q9UIK4)
TAO1 (h) (human) = target: T3, TAO1 (h) (human) (UniProt Q7L7X3)
T3 sequence (looked up): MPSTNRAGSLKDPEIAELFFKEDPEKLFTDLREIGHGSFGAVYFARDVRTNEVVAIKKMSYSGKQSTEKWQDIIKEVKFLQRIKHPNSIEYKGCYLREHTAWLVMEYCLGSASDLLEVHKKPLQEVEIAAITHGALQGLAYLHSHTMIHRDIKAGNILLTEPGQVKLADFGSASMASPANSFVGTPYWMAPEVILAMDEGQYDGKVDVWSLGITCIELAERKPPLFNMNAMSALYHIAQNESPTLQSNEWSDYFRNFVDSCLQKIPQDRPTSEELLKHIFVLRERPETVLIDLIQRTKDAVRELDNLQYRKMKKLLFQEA

[1] = target: CDK6/cyclinD3 (h) (human) (UniProt Q00534)
Sequence of CDK6/cyclinD3 (h) (human) (Q00534 whole entry, chain 1 of 2): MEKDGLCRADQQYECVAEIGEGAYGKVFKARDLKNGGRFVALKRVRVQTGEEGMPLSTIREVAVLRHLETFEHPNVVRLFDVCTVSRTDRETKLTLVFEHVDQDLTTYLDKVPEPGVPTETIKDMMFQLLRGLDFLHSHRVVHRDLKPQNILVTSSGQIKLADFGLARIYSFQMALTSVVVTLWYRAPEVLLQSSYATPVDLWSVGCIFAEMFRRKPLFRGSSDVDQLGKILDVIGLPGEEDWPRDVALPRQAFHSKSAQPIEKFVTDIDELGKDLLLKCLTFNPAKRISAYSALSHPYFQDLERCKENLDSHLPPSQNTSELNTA
Sequence of CDK6/cyclinD3 (h) (human) (P30281 whole entry, chain 2 of 2, further chain): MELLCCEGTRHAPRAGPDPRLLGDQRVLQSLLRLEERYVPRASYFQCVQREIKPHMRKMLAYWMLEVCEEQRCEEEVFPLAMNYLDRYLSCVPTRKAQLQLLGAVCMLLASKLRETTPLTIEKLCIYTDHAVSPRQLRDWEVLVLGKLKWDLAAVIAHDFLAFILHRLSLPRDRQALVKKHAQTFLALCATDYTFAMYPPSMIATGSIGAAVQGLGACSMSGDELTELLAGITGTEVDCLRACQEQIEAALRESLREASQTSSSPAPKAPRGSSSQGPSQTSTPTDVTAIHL

Txk (h) (human) = target: T4, Txk (h) (human) (UniProt P42681)
T4 sequence (looked up): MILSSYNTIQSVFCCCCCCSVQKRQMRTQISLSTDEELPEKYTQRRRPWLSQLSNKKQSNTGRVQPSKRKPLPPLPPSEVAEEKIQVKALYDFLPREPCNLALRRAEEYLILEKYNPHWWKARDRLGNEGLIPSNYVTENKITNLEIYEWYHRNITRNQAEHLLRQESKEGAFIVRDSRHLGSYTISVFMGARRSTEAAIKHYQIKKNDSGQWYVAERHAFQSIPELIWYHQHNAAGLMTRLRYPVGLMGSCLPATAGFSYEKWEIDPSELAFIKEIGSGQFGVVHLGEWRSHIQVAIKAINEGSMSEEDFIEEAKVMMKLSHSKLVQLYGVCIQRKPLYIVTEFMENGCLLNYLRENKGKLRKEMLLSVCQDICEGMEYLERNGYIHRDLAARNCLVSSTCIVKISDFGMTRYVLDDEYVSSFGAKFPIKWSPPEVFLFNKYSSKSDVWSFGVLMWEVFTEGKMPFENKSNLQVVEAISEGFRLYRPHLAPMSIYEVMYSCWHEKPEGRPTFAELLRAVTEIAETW

CDK1/cyclinB (h) (human) = CDK1/cyclinB (h) (human) (UniProt P06493)
Abl (h) (human) = Abl (h) (human) (UniProt P00519)
Sequence of Abl (h) (human) (P00519 27-1130 limits assumed): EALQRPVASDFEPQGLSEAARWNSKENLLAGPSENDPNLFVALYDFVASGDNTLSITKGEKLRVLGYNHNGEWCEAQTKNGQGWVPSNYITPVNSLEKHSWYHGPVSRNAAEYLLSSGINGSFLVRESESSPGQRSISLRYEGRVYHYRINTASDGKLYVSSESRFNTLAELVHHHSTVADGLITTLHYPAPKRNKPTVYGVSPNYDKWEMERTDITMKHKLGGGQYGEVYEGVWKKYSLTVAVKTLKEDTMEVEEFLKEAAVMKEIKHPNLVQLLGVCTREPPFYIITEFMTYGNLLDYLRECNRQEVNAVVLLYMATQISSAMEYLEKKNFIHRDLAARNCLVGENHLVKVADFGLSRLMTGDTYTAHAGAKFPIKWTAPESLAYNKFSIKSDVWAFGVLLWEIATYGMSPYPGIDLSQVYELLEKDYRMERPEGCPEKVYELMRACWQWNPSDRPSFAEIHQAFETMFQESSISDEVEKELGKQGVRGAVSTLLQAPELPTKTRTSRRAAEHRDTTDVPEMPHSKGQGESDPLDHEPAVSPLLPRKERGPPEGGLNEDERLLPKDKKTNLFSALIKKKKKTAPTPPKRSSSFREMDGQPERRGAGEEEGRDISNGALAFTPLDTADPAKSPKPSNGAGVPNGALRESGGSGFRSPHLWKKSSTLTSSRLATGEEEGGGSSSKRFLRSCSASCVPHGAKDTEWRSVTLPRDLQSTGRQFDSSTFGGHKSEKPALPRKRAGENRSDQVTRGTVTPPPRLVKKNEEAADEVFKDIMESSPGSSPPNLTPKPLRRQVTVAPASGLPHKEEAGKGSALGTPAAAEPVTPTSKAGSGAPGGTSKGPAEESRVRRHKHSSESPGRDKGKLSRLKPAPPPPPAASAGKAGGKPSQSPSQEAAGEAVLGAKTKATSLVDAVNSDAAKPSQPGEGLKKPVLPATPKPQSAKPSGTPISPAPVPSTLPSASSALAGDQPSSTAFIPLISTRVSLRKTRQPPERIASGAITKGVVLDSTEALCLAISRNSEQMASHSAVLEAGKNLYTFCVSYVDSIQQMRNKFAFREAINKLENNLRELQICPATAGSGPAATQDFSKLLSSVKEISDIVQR

Mer (h) (human) = target: T5, Mer (h) (human) (UniProt Q12866)
T5 sequence (looked up): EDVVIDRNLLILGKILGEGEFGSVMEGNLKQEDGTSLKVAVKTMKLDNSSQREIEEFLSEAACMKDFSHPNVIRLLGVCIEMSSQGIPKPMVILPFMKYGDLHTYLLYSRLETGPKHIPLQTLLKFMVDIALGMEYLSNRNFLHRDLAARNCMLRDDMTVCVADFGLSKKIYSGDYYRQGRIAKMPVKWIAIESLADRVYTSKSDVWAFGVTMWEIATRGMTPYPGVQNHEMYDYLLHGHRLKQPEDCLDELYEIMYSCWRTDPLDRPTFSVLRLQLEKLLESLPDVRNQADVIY

ULK3 (h) (human) = target: T6, ULK3 (h) (human) (UniProt Q6PHR2)
T6 sequence (looked up): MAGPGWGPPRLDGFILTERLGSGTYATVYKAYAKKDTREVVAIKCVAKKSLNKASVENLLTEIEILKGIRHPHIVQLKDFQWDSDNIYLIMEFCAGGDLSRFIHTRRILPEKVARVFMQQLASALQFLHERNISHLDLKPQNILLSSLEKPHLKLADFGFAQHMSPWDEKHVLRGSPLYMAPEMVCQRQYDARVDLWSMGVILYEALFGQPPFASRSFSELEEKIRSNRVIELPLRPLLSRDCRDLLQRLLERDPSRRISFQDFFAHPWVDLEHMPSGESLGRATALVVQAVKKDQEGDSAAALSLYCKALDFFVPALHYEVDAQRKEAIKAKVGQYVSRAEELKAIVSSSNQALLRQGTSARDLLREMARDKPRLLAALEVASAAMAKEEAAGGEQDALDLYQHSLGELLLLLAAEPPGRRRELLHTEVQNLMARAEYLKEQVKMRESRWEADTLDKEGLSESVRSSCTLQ

PAK3 (h) (human) = PAK3 (h) (human) (UniProt O75914)
ZAP-70 (h) (human) = ZAP-70 (h) (human) (UniProt P43403)
Sequence of ZAP-70 (h) (human) (P43403 whole entry): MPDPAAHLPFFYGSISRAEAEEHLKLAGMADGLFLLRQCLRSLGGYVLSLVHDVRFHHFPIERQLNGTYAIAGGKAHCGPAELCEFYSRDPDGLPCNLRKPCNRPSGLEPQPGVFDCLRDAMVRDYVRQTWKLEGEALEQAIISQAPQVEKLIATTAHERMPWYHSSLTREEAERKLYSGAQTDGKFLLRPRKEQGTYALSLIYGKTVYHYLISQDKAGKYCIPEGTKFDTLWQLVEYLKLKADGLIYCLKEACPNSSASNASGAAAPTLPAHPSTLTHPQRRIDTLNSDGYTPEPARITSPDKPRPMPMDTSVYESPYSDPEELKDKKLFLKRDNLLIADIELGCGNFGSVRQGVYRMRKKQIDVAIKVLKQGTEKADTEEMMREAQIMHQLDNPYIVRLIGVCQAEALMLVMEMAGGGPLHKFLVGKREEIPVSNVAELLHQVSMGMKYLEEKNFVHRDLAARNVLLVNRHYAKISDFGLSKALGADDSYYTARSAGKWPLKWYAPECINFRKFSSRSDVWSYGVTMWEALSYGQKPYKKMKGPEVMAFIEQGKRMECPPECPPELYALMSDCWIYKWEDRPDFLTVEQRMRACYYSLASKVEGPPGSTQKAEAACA

cKit(D816H) (h) (human) = cKit(D816H) (h) (human) (UniProt P10721)
Sequence of cKit(D816H) (h) (human) (P10721 544-976 D816H): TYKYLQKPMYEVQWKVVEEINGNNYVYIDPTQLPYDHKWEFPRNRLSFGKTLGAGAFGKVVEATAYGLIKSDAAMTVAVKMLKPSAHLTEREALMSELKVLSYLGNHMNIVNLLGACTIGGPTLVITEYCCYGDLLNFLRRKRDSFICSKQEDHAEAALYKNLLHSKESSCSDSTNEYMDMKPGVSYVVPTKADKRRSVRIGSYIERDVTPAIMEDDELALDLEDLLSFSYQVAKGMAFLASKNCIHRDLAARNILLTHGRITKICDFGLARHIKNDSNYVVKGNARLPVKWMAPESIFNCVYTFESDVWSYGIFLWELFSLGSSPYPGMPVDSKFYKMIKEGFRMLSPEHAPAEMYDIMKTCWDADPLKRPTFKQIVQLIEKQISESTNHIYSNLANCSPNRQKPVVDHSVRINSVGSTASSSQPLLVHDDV

Lyn (h) (human) = Lyn (h) (human) (UniProt P07948)

## MMI-0300 (peptide)
MELK (h) (human)
  % activity at 100 µM: 16%
EphA1 (h) (human)
  % activity at 100 µM: 73%
TAO2 (h) (human)
  % activity at 100 µM: 70%
mTOR/FKBP12 (h) (human)
  % activity at 100 µM: 145%
DAPK2 (h) (human)
  % activity at 100 µM: 32%
TAO1 (h) (human)
  % activity at 100 µM: 82%
[1]
  % activity at 100 µM: 86%
Txk (h) (human)
  % activity at 100 µM: 48%
CDK1/cyclinB (h) (human)
  % activity at 100 µM: 73%
Abl (h) (human)
  % activity at 100 µM: 69%
Mer (h) (human)
  % activity at 100 µM: 52%
ULK3 (h) (human)
  % activity at 100 µM: 167%
PAK3 (h) (human)
  % activity at 100 µM: 140%
ZAP-70 (h) (human)
  % activity at 100 µM: 75%
cKit(D816H) (h) (human)
  % activity at 100 µM: 126%
Lyn (h) (human)
  % activity at 100 µM: 69%
